From patent US20250171562A1 (ALK ABELL, published 2025)
Each block holds one binder with its values, some of them ahead of it.

Target: T1, recombinant human IgE (human, UniProt P01854-1 1-428)
T1 construct: made in-house (ALK); preloaded on immobilised FcεRIα in the displacement ELISA
Experiment: IgE-FcεRIα displacement ELISA
How it was run: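 Streptavidin-coated plates carried site-specifically biotinylated recombinant human FcεRIα, loaded with recombinant human IgE at 13 ng/ml. sdAbs in a pM–μM series were added for 1 h, and displaced IgE was washed off. Percent displacement was the signal reduction versus the no-sdAb control, giving EC50 and maximal effect.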

T1 sequence (P01854 other isoform, or with tags, fused parts or gaps): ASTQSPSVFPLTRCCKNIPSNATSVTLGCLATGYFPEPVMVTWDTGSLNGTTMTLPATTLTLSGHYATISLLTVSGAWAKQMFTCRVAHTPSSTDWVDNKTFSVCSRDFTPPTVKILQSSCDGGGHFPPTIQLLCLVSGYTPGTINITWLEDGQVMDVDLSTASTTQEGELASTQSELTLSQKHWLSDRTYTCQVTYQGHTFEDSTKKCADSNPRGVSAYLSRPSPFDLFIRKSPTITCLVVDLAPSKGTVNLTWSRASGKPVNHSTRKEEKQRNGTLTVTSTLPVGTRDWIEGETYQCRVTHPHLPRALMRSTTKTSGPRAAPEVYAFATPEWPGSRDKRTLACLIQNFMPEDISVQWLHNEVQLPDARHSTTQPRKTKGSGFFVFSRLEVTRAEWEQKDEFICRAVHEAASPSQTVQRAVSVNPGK

B1: CIgG4D1A1(RS) (Fc fusion)
chain 1: GPPCPPCPAPEFLGGPSVFLFPPKPKDTLMISRTPEVTCVVVDVSQEDPEVQFNWYVDGVEVHNAKTKPREEQFNSTYRVVSVLTVLHQDWLNGKEYKCKVSNKGLPSSIEKTISKAKGQPREPQVYTLPPCQEEMTKNQVSLWCLVKGFYPSDIAVEWESNGQPENNYKTTPPVLDSDGSFFLYSRLTVDKSRWQEGNVFSCSVMHEALHNHYTQKSLSLSLGKRSDVQLQESGGGLVQAGGSLRLSCAASGLTFSRCDMGWFRQAPGKEREFVARISANGASTHYADFVKGRFTISRDNAKNTVYLQMNYLKPEDTAVYICAAARVPVTWQLYDYWGQGTQVTVS
chain 2: GPPCPPCPAPEFLGGPSVFLFPPKPKDTLMISRTPEVTCVVVDVSQEDPEVQFNWYVDGVEVHNAKTKPREEQFNSTYRVVSVLTVLHQDWLNGKEYKCKVSNKGLPSSIEKTISKAKGQPREPQVCTLPPSQEEMTKNQVSLSCAVKGFYPSDIAVEWESNGQPENNYKTTPPVLDSDGSFFLVSRLTVDKSRWQEGNVFSCSVMHEALHNHYTQKSLSLSLGKRSEVQLLESGGGLVQPGGSLRLSCAASGFTFGNYDMAWVRQAPGKRPEWVSSIDTGGDITHYADSVKGRFTISRDNAKNTLYLQMNSLRPEDTAVYWCATDEEYALGPNEFDYYGQGTLVTVSS
- Max effect: 30%

B2: CIgG4D2A1(RS) (Fc fusion)
chain 1: GPPCPPCPAPEFLGGPSVFLFPPKPKDTLMISRTPEVTCVVVDVSQEDPEVQFNWYVDGVEVHNAKTKPREEQFNSTYRVVSVLTVLHQDWLNGKEYKCKVSNKGLPSSIEKTISKAKGQPREPQVYTLPPCQEEMTKNQVSLWCLVKGFYPSDIAVEWESNGQPENNYKTTPPVLDSDGSFFLYSRLTVDKSRWQEGNVFSCSVMHEALHNHYTQKSLSLSLGKRSDVQLQESGGGLVEAGGSLRLSCVASGRTFSGWSMGWFRQAPGKEREFVAAISWVGSWIGGTVYSNSVKGRFTISRDNARTTVYLQMNSLKPEDTAVYFCAAANSETPRIFASEYDYWGQGTQVTVS
chain 2: B1 chain 2
- Max effect: 35%

B5: CIgG4B3A1(G4S)2 (Fc fusion)
chain 1: GPPCPPCPAPEFLGGPSVFLFPPKPKDTLMISRTPEVTCVVVDVSQEDPEVQFNWYVDGVEVHNAKTKPREEQFNSTYRVVSVLTVLHQDWLNGKEYKCKVSNKGLPSSIEKTISKAKGQPREPQVYTLPPCQEEMTKNQVSLWCLVKGFYPSDIAVEWESNGQPENNYKTTPPVLDSDGSFFLYSRLTVDKSRWQEGNVFSCSVMHEALHNHYTQKSLSLSLGKGGGGSGGGGSDVQLQESGGGLVQAGGSLRLSCAASGFIFRLAGMSWVRQAPGKGFEWVSGITMDGSTTNYADSVKGRFTISRDNSKNRLYLQMNSLKPEDTAVYYCARGAKGGYNDPRGQGTQVTVS
chain 2: GPPCPPCPAPEFLGGPSVFLFPPKPKDTLMISRTPEVTCVVVDVSQEDPEVQFNWYVDGVEVHNAKTKPREEQFNSTYRVVSVLTVLHQDWLNGKEYKCKVSNKGLPSSIEKTISKAKGQPREPQVCTLPPSQEEMTKNQVSLSCAVKGFYPSDIAVEWESNGQPENNYKTTPPVLDSDGSFFLVSRLTVDKSRWQEGNVFSCSVMHEALHNHYTQKSLSLSLGKGGGGSGGGGSEVQLLESGGGLVQPGGSLRLSCAASGFTFGNYDMAWVRQAPGKRPEWVSSIDTGGDITHYADSVKGRFTISRDNAKNTLYLQMNSLRPEDTAVYWCATDEEYALGPNEFDYYGQGTLVTVSS
notes: also called CIgG4B3A1(GS)2
- EC50: 32 nM
- Max effect: 85%

B7: CIgG4D1A1(G4S)1 (Fc fusion)
chain 1: GPPCPPCPAPEFLGGPSVFLFPPKPKDTLMISRTPEVTCVVVDVSQEDPEVQFNWYVDGVEVHNAKTKPREEQFNSTYRVVSVLTVLHQDWLNGKEYKCKVSNKGLPSSIEKTISKAKGQPREPQVYTLPPCQEEMTKNQVSLWCLVKGFYPSDIAVEWESNGQPENNYKTTPPVLDSDGSFFLYSRLTVDKSRWQEGNVFSCSVMHEALHNHYTQKSLSLSLGKGGGGSDVQLQESGGGLVQAGGSLRLSCAASGLTFSRCDMGWFRQAPGKEREFVARISANGASTHYADFVKGRFTISRDNAKNTVYLQMNYLKPEDTAVYICAAARVPVTWQLYDYWGQGTQVTVS
chain 2: GPPCPPCPAPEFLGGPSVFLFPPKPKDTLMISRTPEVTCVVVDVSQEDPEVQFNWYVDGVEVHNAKTKPREEQFNSTYRVVSVLTVLHQDWLNGKEYKCKVSNKGLPSSIEKTISKAKGQPREPQVCTLPPSQEEMTKNQVSLSCAVKGFYPSDIAVEWESNGQPENNYKTTPPVLDSDGSFFLVSRLTVDKSRWQEGNVFSCSVMHEALHNHYTQKSLSLSLGKGGGGSEVQLLESGGGLVQPGGSLRLSCAASGFTFGNYDMAWVRQAPGKRPEWVSSIDTGGDITHYADSVKGRFTISRDNAKNTLYLQMNSLRPEDTAVYWCATDEEYALGPNEFDYYGQGTLVTVSS
- EC50: 52 nM
- Max effect: 90%

The next lines start with the values.

- EC50: 5.4 nM
- Max effect: 95%
B3: CIgG4B3A1(G4S)3 (Fc fusion)
chain 1: GPPCPPCPAPEFLGGPSVFLFPPKPKDTLMISRTPEVTCVVVDVSQEDPEVQFNWYVDGVEVHNAKTKPREEQFNSTYRVVSVLTVLHQDWLNGKEYKCKVSNKGLPSSIEKTISKAKGQPREPQVYTLPPCQEEMTKNQVSLWCLVKGFYPSDIAVEWESNGQPENNYKTTPPVLDSDGSFFLYSRLTVDKSRWQEGNVFSCSVMHEALHNHYTQKSLSLSLGKGGGGSGGGGSGGGGSDVQLQESGGGLVQAGGSLRLSCAASGFIFRLAGMSWVRQAPGKGFEWVSGITMDGSTTNYADSVKGRFTISRDNSKNRLYLQMNSLKPEDTAVYYCARGAKGGYNDPRGQGTQVTVS
chain 2: GPPCPPCPAPEFLGGPSVFLFPPKPKDTLMISRTPEVTCVVVDVSQEDPEVQFNWYVDGVEVHNAKTKPREEQFNSTYRVVSVLTVLHQDWLNGKEYKCKVSNKGLPSSIEKTISKAKGQPREPQVCTLPPSQEEMTKNQVSLSCAVKGFYPSDIAVEWESNGQPENNYKTTPPVLDSDGSFFLVSRLTVDKSRWQEGNVFSCSVMHEALHNHYTQKSLSLSLGKGGGGSGGGGSGGGGSEVQLLESGGGLVQPGGSLRLSCAASGFTFGNYDMAWVRQAPGKRPEWVSSIDTGGDITHYADSVKGRFTISRDNAKNTLYLQMNSLRPEDTAVYWCATDEEYALGPNEFDYYGQGTLVTVSS
notes: also called CIgG4B3A1(GS)3

- EC50: 14 nM
- Max effect: > 95%
B4: CIgG4D1A1(G4S)3 (Fc fusion)
chain 1: GPPCPPCPAPEFLGGPSVFLFPPKPKDTLMISRTPEVTCVVVDVSQEDPEVQFNWYVDGVEVHNAKTKPREEQFNSTYRVVSVLTVLHQDWLNGKEYKCKVSNKGLPSSIEKTISKAKGQPREPQVYTLPPCQEEMTKNQVSLWCLVKGFYPSDIAVEWESNGQPENNYKTTPPVLDSDGSFFLYSRLTVDKSRWQEGNVFSCSVMHEALHNHYTQKSLSLSLGKGGGGSGGGGSGGGGSDVQLQESGGGLVQAGGSLRLSCAASGLTFSRCDMGWFRQAPGKEREFVARISANGASTHYADFVKGRFTISRDNAKNTVYLQMNYLKPEDTAVYICAAARVPVTWQLYDYWGQGTQVTVS
chain 2: B3 chain 2

- EC50: 30 nM
- Max effect: > 95%
B6: CIgG4D1A1(G4S)2 (Fc fusion)
chain 1: GPPCPPCPAPEFLGGPSVFLFPPKPKDTLMISRTPEVTCVVVDVSQEDPEVQFNWYVDGVEVHNAKTKPREEQFNSTYRVVSVLTVLHQDWLNGKEYKCKVSNKGLPSSIEKTISKAKGQPREPQVYTLPPCQEEMTKNQVSLWCLVKGFYPSDIAVEWESNGQPENNYKTTPPVLDSDGSFFLYSRLTVDKSRWQEGNVFSCSVMHEALHNHYTQKSLSLSLGKGGGGSGGGGSDVQLQESGGGLVQAGGSLRLSCAASGLTFSRCDMGWFRQAPGKEREFVARISANGASTHYADFVKGRFTISRDNAKNTVYLQMNYLKPEDTAVYICAAARVPVTWQLYDYWGQGTQVTVS
chain 2: B5 chain 2

- EC50: 25 nM
- Max effect: > 95%
B8: CIgG4D2A1(G4S)1 (Fc fusion)
chain 1: GPPCPPCPAPEFLGGPSVFLFPPKPKDTLMISRTPEVTCVVVDVSQEDPEVQFNWYVDGVEVHNAKTKPREEQFNSTYRVVSVLTVLHQDWLNGKEYKCKVSNKGLPSSIEKTISKAKGQPREPQVYTLPPCQEEMTKNQVSLWCLVKGFYPSDIAVEWESNGQPENNYKTTPPVLDSDGSFFLYSRLTVDKSRWQEGNVFSCSVMHEALHNHYTQKSLSLSLGKGGGGSDVQLQESGGGLVEAGGSLRLSCVASGRTFSGWSMGWFRQAPGKEREFVAAISWVGSWIGGTVYSNSVKGRFTISRDNARTTVYLQMNSLKPEDTAVYFCAAANSETPRIFASEYDYWGQGTQVTVS
chain 2: B7 chain 2
